How the values were obtained:
[1] = target: prothrombin with an Alexa532 on the 271 cleavage site that was attached by mutating the arginine to a cysteine (UniProt P00734); experiment: FRET, Alexa488-FVa donor and Alexa532 prothrombin acceptor, with 2.5 µM RNA aptamer T18.3
[2] = target: prothrombin with an Alexa532 on the 271 cleavage site that was attached by mutating the arginine to a cysteine (UniProt P00734); experiment: FRET, Alexa488-FVa donor and Alexa532 prothrombin acceptor, buffer control

emission percentage (FRET) [1]: 17.5%
emission percentage (FRET) [2]: 16.3%
Substance: FVa with Alexa488 on the 539 residue (from UniProt P12259 29-2224)
